From US20190002567A1 (LABORATOIRE FRANCAIS DU FRACTIONNEMENT ET DES …, published 2019)
Positions count from the first letter of the chain named.

T1: human CD303 antigen (C-type lectin domain family 4 member C) (human, UniProt Q8WTT0 1-213)
T1 sequence: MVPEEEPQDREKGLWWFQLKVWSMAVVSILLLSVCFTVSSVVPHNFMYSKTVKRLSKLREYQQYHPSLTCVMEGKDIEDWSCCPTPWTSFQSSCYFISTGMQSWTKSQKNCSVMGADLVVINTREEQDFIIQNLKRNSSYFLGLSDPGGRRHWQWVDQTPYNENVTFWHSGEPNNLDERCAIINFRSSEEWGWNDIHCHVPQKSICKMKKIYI

B1: chimeric antibody 104C12 (antibody, human IgG1, kappa)
heavy: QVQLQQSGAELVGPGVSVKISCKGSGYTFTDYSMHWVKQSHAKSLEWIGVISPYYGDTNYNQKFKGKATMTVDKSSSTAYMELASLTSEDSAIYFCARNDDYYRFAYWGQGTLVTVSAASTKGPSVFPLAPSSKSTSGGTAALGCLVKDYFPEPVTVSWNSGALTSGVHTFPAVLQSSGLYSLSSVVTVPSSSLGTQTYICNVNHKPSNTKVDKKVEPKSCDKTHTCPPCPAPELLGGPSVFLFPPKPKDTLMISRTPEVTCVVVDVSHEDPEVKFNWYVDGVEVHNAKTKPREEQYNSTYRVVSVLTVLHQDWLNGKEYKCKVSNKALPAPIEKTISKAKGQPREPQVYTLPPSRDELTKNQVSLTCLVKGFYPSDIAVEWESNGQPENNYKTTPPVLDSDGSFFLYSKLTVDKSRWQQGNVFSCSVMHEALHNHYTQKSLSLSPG
light: DLQMTQTPSSLSASLGDRVTISCRASQDINNYLSWYQEKPDGTFKLLIYYTSRLHSGVPSRFSGSGSGTDYSLTVRNLEQEDIGTYFCQQGKTLPWTFGGGTKLEIRRTVAAPSVFIFPPSDEQLKSGTASVVCLLNNFYPREAKVQWKVDNALQSGNSQESVTEQDSKDSTYSLSSTLTLSKADYEKHKVYACEVTHQGLSSPVTKSFNRGEC
notes: Family 1
B2: chimeric antibody 104E10 (antibody, human IgG1, kappa)
heavy: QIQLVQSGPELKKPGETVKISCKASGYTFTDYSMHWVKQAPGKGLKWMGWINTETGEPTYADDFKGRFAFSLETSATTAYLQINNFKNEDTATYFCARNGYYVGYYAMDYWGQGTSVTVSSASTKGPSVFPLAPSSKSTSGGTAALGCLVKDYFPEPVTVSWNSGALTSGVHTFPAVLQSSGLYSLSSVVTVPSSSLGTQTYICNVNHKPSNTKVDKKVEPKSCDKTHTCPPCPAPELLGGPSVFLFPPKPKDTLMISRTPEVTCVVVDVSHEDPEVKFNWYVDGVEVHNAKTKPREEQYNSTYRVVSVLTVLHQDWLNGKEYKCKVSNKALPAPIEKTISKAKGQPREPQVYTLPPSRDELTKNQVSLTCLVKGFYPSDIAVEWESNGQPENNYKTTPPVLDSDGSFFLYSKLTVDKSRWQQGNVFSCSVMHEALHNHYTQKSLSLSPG
light: QIVLTQSPAIMSASPGEKVTMTCSASSSVIYMHWFQQKPGTSPKLWIYSTSNLASGVPARFSGSGSGTSYSLTISRMEAEDAATYYCQQRRSYPYTFGGGTKLEIKRTVAAPSVFIFPPSDEQLKSGTASVVCLLNNFYPREAKVQWKVDNALQSGNSQESVTEQDSKDSTYSLSSTLTLSKADYEKHKVYACEVTHQGLSSPVTKSFNRGEC
notes: Family 2
B3: chimeric antibody 102E9 (antibody, human IgG1, kappa)
heavy: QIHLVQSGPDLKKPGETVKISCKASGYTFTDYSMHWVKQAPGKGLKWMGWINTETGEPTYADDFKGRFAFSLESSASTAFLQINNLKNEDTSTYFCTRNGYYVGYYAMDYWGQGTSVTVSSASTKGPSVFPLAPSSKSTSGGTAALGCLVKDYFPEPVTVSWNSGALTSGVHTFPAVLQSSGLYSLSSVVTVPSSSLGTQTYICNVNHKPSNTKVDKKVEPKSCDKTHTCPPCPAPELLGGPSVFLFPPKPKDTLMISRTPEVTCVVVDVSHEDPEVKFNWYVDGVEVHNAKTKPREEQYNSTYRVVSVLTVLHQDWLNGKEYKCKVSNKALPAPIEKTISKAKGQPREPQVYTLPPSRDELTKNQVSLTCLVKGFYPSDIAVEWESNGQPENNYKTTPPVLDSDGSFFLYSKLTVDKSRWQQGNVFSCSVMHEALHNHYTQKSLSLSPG
light: B2 light with M21I, M32I, N52Y, Y95F
notes: Family 2; the text gives the same values for 102E9
B4: chimeric antibody 114D11 (antibody, human IgG1, kappa)
heavy: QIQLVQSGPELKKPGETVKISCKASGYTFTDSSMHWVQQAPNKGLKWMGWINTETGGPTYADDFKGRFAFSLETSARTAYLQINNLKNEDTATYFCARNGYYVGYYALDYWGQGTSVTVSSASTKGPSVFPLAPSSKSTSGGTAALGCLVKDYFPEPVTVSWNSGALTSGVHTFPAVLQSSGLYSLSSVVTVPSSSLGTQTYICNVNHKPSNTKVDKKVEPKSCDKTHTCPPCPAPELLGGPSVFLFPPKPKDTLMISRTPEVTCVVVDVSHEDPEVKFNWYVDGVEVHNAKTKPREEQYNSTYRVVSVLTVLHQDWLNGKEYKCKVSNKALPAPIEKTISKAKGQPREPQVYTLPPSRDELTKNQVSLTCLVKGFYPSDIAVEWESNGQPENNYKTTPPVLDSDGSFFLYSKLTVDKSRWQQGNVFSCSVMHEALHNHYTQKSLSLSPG
light: B2 light with M21I, I30F
notes: Family 2
B5: chimeric antibody 122A2 (antibody, human IgG1, kappa)
heavy: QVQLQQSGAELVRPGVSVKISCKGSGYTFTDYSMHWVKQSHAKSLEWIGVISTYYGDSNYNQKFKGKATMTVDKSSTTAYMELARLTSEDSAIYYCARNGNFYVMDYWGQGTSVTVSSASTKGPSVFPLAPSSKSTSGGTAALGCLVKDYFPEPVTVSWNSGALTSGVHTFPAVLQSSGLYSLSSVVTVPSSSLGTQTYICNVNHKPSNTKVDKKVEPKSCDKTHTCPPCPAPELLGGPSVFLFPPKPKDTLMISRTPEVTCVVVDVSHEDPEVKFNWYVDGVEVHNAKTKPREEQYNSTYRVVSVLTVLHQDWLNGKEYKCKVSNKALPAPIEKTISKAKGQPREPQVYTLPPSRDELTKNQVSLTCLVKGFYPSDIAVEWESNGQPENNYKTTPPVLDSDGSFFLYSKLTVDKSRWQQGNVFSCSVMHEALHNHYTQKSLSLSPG
light: DIQMTQTTSSLSASLGDRVTISCRASQDISNYLNWYQQKPDGTVKLLIYYTSRLHSGVPSRFSGSGSGTDYSLTISNLDQEDIATYFCQQGNTLPWTFGGGTKLEIKRTVAAPSVFIFPPSDEQLKSGTASVVCLLNNFYPREAKVQWKVDNALQSGNSQESVTEQDSKDSTYSLSSTLTLSKADYEKHKVYACEVTHQGLSSPVTKSFNRGEC
notes: Family 1; also called Ch; 122A2 mAb; Ch122A2 mAb

Experiments:
[1] = biological target: T1, human CD303 antigen (C-type lectin …); assay: cell-based or functional assay
FcγRIIIa (CD16a) = biological target: T2, FcγRIIIa (CD16a) (UniProt P08637 17-254, limits assumed); assay: competition with 3G8-PE for CD16 on NK cells, flow cytometry
T2 construct: whole, on cells; also called FcvRIIIa
T2 sequence (P08637 17-254 limits assumed): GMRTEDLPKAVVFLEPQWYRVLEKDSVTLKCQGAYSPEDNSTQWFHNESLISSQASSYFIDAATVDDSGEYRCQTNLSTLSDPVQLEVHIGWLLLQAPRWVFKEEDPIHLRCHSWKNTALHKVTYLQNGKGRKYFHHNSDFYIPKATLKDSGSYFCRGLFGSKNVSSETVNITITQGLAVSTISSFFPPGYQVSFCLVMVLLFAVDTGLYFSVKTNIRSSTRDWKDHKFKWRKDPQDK
Method: After washing, the binding of 3G8-PE to CD16 expressed by the NK cells was evaluated by flow cytometry. Mean fluorescence intensity (MFI) values are expressed as a percentage, 100% being the value obtained with the 3G8-PE antibody alone, and 0% the value obtained in the absence of 3G8-PE.

Row | Binder | ADCC EC50 (ng/mL) on Fc Gamma chain-CD303 Jurkat target cells [1] | ADCC Emax (% lysis) on Fc Gamma chain-CD303 Jurkat target cells [1] | IC50 (FcγRIIIa (CD16a))
1 | B1 | 0.214 ng/mL | 41.8 % lysis | 26.8 mg/L
2 | B2 | 8.28 ng/mL | 40.5 % lysis | 18.1 mg/L
3 | B3 | 3.42 ng/mL | 38.9 % lysis | 37 mg/L
4 | B4 | 3.61 ng/mL | 37.4 % lysis | 45 mg/L
5 | B5 | 0.159 ng/mL | 42.4 % lysis | 40.4 mg/L
